According to patent US20220380446A1 (ABL BIO, published 2022):
Positions count from the first letter of the chain named.

B1: hu1E4(V1_VL1) (antibody, human IgG1, V domains shown)
VH: QVQLVQSGAEVKKPGASVKVSCKASGYTFTNYLIEWVRQAPGQGLEWMGVINPGSGGTNYNEKFKGRVTMTRDTSISTAYMELSRLRSDDTAVYYCASGNYDTYWGQGTLVTVSS
VL: DIVMTQTPLSLSVTPGQPASISCRSSQSLVHSNGNTYLHWYLQKPGQSPQLLIYKVSNRFSGVPDRFSGSGSGTDFTLKISRVEAEDVGVYYCSQSTHVPRTFGQGTKLEIK
notes: Monospecific; fused to human IgG1 and kappa constant regions; also called humanized 1E4(V1_VL1); hu1E4(Ver.1_VL1)
B2: mouse hybridoma 1E4 (antibody, V domains shown)
VH: QVQLQQSGAELVRPGTSVKVSCKASGYAFTNYLIEWVKQRPGQGLEWIGVINPGSGGTNYNEKFKGKATLTADKSSSTAYMQLSSLTSDDSAVYFCASGNYDTYWGQGTLVTVSA
VL: B1 VL with I2V, S12P, T14S, P15L, Q17D, P18Q, Q50K, V88L, Y92F, Q105G
notes: Mouse 1E4 made by the hybridoma; also called hy1E4; mouse 1E4 antibody
B3: chimeric 1E4 antibody (antibody, V domains shown)
VH: B2 VH
VL: B1 VL with I2V, S12P, T14S, P15L, Q17D, P18Q, Q50K, V88L, Y92F, Q105G
notes: VH and VL of mouse 1E4 with human IgG1 and kappa constant regions; also called ch1E4; Ch1E4
B4: hu1E4(V2_VL2) (antibody, human IgG1, V domains shown)
VH: B1 VH with M48I, R67K, M70L, R72A, T74K
VL: B1 VL with I2V
notes: Monospecific; human IgG1 and kappa constant regions
B5: hu1E4(V3_VL2) (antibody, human IgG1, V domains shown)
VH: B1 VH with T28A, R38K, M48I, R67K, M70L, R72A, T74K
VL: B1 VL with I2V
notes: as for B4
B6: hu1E4(V7_VL2) (antibody, human IgG1, V domains shown)
VH: B1 VH with T28A, R38K, R67K, V68A, M70L, R72A, T74K
VL: B1 VL with I2V
notes: as for B4
B7: recombinant mouse 1E4 (antibody, V domains shown)
VH: B2 VH
VL: B1 VL with I2V, S12P, T14S, P15L, Q17D, P18Q, Q50K, V88L, Y92F, Q105G
notes: also called rm1E4
B8: hu1E4(V3_VL2) x Grabody B (bispecific antibody, human IgG1, kappa)
heavy 1: not shown
heavy 2: not shown
light: DVVMTQTPLSLSVTPGQPASISCRSSQSLVHSNGNTYLHWYLQKPGQSPQLLIYKVSNRFSGVPDRFSGSGSGTDFTLKISRVEAEDVGVYYCSQSTHVPRTFGQGTKLEIKRTVAAPSVFIFPPSDEQLKSGTASVVCLLNNFYPREAKVQWKVDNALQSGNSQESVTEQDSKDSTYSLSSTLTLSKADYEKHKVYACEVTHQGLSSPVTKSFNRGEC
notes: also called hu1E4(V3 VL2) × Grabody B
B9: hu1E4(V2_VL2) x Grabody B (bispecific antibody, human IgG1, kappa)
heavy 1: not shown
heavy 2: not shown
light: B8 light
notes: also called hu1E4(V2 VL2) × Grabody B
B10: hu1E4(V7_VL2) x Grabody B (bispecific antibody, human IgG1, kappa)
heavy 1: not shown
heavy 2: not shown
light: B8 light
notes: also called hu1E4(V7 VL2) × Grabody B
B11: hu1E4(V5_VL4) x Grabody B (bispecific antibody, human IgG1, kappa)
heavy 1: not shown
heavy 2: not shown
light: B8 light with T7S, S12P, P15L, L42Q, K44R, Q50R, Q105G, L109V
notes: also called hu1E4(V5 VL4) × Grabody B
B12: hu1E4(V5_VL5) x Grabody B (bispecific antibody, human IgG1, kappa)
heavy 1: not shown
heavy 2: not shown
light: B8 light with T7S, S12P, P15L, L42Q, K44R, Q50R, Y92F, Q105G, L109V
notes: also called hu1E4(V5 VL5) × Grabody B
B13: hu1E4(V8_VL4) (antibody, human IgG1, V domains shown)
VH: B1 VH with R72A, T74K
VL: B1 VL with I2V, T7S, S12P, P15L, L42Q, K44R, Q50R, Q105G, L109V
notes: as for B4
B14: hu1E4(V9_VL4) (antibody, human IgG1, V domains shown)
VH: B1 VH with M48I, V68A, M70L, R72A, T74K
VL: B1 VL with I2V, T7S, S12P, P15L, L42Q, K44R, Q50R, Q105G, L109V
notes: as for B4
B15: hu1E4(V5_VL3) x Grabody B (bispecific antibody, human IgG1, kappa)
heavy 1: not shown
heavy 2: not shown
light: B8 light with T7S, S12P, P15L, Y41F, L42Q, K44R, Q50R, L51R, Q105G, L109V
notes: also called hu1E4(V5 VL3) × Grabody B
B16: hu1E4(V6_VL3) x Grabody B (bispecific antibody, human IgG1, kappa)
heavy 1: not shown
heavy 2: not shown
light: B8 light with T7S, S12P, P15L, Y41F, L42Q, K44R, Q50R, L51R, Q105G, L109V
notes: also called hu1E4(V6 VL3) × Grabody B

What follows are binders tested against human α-synuclein oligomers (Dopamine HCL Stabilized Human Recombinant Alpha Synuclein Oligomers, StressMarq … (human, UniProt P37840 1-140)) (assay: sandwich ELISA, antibody coated, oligomeric α-syn added, 7B7-biotin detection).
Description: Human α-syn oligomers from StressMarq (Dopamine HCL Stabilized Human Recombinant Alpha Synuclein Oligomers, SPR-466) was used as the oligomeric α-syn in the assay.
In this sandwich ELISA, test antibodies were diluted with PBS by five-fold serial dilution from 80 nM to 0.005 nM. The serially diluted antibodies were added to a 96-well plate at 100 μL/well for coating. The plate was sealed and incubated at 4° C. for 16 hours. After washing with PBS-T five times, the plate was blocked with 5% BSA in PBS 200 μL/well at 37° C. for 2 hours. After washing with PBS-T five times, oligomeric α-syn (2 μg/mL, 100 μL/well in 2% BSA in PBS) was added and incubated at 37° C. for 2 hours. After washing with PBS-T five times, 7B7-biotin antibody (1 μg/mL, 100 μL/well, in 2% BSA in PBS) were added and incubated at 37° C. for 2 hours. After washing with PBS-T five times, the plate was incubated with Streptavidin-HRP in 2% BSA in PBS (1:5000, 1 mg/mL stock, 20 ng/well, 100 μL/well) at 37° C. for 1 hour. After washing with PBS-T five times, TMB (100 μL/well) was added and incubated at RT for 5 minutes. The reaction was stopped by the addition of 0.5 N H₂SO₄ (50 μL/well).

Going from B1 to B2, the EC50 rises from 3.46 nM to 6.56 nM (1.9-fold).

Compared with B1, B2 is higher in Saturation point: 3.16 for the first, 3.17 for the second.

These binders were tested against T1, human α-synuclein pre-formed fibrils (Human Alpha Synuclein Pre-formed Fibrils Type II, StressMarq SPR-317) (human, UniProt P37840 1-140) (assay: sandwich ELISA, antibody coated, α-syn PFF added, 7B7-biotin detection).
Description: (§1) Specifically, the antibodies were diluted with PBS by six-fold serial dilution from 400 nM to 0.009 nM. The diluted antibodies were added to a 96-well plate at 100 μL/well for coating. The plate was sealed and incubated at 4° C. for 16 hours. After washing with phosphate-buffered saline with Tween® (PBS-T; 0.05% Tween® 20) five times, the plate was blocked with 5% BSA in PBS 200 μL/well at 37° C. for 2 hours. After washing with PBS-T five times, α-syn PFF (2 μg/mL, 100 μL/well in 2% BSA in PBS) was added to the plate and incubated at 37° C. for 2 hours. After washing with PBS-T five times, 7B7-biotin antibody (anti-α-syn antibody; 1 μg/mL/100 μL/well, in 2% BSA in PBS) was added and incubated at 37° C. for 2 hours. After washing with PBS-T five times, the plate was incubated with horseradish peroxidase (HRP)-bound streptavidin in PBS with 2% BSA (1:5000, 1 mg/mL stock, 20 ng/well, 100 μL/well) at 37° C. for 1 hour. After washing with PBS-T five times, 3,3′,5,5′-tetramethylbenzidine (TMB) (100 μL/well) was added and incubated at room temperature for 5 minutes. The reaction was stopped by the addition of 0.5 N H₂SO₄ (50 μL/well). Optical absorbance at 450 nm was measured by using a plate reader, with absorbance at 650 nm subtracted from the reading.

Compared with B3, B4 is 1.5-fold lower in EC50: 0.876 nM for the first, 0.57 nM for the second.

B1 and B5 are within 1.5-fold of each other in EC50: 0.619 nM for the first, 0.577 nM for the second.

B6 was tested, and the EC50 was 0.339 nM.

These binders were tested against T1, human α-synuclein pre-formed fibrils … (assay: SPR Biacore T200, antibody captured on Protein A chip, α-syn PFF analyte, 1:1 model).
Description: (§2) The equipment used was Biacore® (GE Healthcare, Model T200). Protein A (GE Healthcare, Cat: 29-1275-56) was used as a chip, 10 mM glycine-HCl pH 1.5 (GE Healthcare, Cat: BR-1003-54) was used as a regeneration buffer, and HBS-EP was used as a running buffer and an analyte dilution and sample dilution buffer. […] A capture phase was carried out at a contact time of 60 seconds and a flow rate of 30 μL/min was used for a stabilization period of 60 seconds, with the target resonance units (RU) of fibril set to 10 (theoretical). In an association phase, the association time was set to 60 seconds and a flow rate was set to 60 μL/min. In a dissociation phase, the dissociation time was set to 180 seconds, and a flow rate was set to 60 μL/min. In a regeneration phase, the flow rate was set to 30 μL/min, and the regeneration time was set to 60 seconds. A 1:1 binding model was used for fitting, and the Biacore® T200 Evaluation software (GE Healthcare) was used for the evaluation.

B1 showed a Kd of 0.0302 nM.

With B1 the koff was 0.000415 s⁻¹.

Binder B1 has a kon of 1.38e+07 M⁻¹ s⁻¹.

Target: T1, human α-synuclein pre-formed fibrils …
Assay: sandwich ELISA, antibody coated, α-syn PFF added, 7B7-biotin detection
Remark: another data set of the same source
Description: as §1

B3 and B1 are within 1.5-fold of each other in EC50: 1.61 nM for the first, 1.1 nM for the second.

Work on B7 yielded an EC50 of 2.59 nM.

Target: T1, human α-synuclein pre-formed fibrils …
Assay: as above
Remark: another data set of the same source
Description: as §1

Going from B3 to B8, the EC50 falls from 0.554 nM to 0.285 nM (1.9-fold). The second is the more potent here.

B9 and B10 are within 1.5-fold of each other in EC50: 0.364 nM for the first, 0.418 nM for the second.

Target: T1, human α-synuclein pre-formed fibrils …
Assay: SPR Biacore T200, antibody captured on Protein A chip, α-syn PFF analyte, 1:1 model
Remark: another data set of the same source
Description: as §2

First: B3
Second: B8
The Kd of the first is 1.9-fold lower: 0.0519 nM for the first, 0.0982 nM for the second. The first binds more tightly here.

B10 and B11 are within 1.5-fold of each other in Kd: 0.143 nM for the first, 0.167 nM for the second.

In the case of B12, the Kd is reported as 0.059 nM.

Compared with B3, B8 is 1.8-fold higher in koff: 0.00054 s⁻¹ for the first, 0.000992 s⁻¹ for the second.

B10 and B11 are within 1.5-fold of each other in koff: 0.0015 s⁻¹ for the first, 0.0016 s⁻¹ for the second.

B12 showed a koff of 0.00067 s⁻¹.

B3 and B8 are within 1.5-fold of each other in kon: 1.04e+07 M⁻¹ s⁻¹ for the first, 1.01e+07 M⁻¹ s⁻¹ for the second.

B10 and B11 are within 1.5-fold of each other in kon: 1.05e+07 M⁻¹ s⁻¹ for the first, 9.96e+06 M⁻¹ s⁻¹ for the second.

For B12, the kon was 1.14e+07 M⁻¹ s⁻¹.

Target: T1, human α-synuclein pre-formed fibrils …
Assay: sandwich ELISA, antibody coated, α-syn PFF added, 7B7-biotin detection
Remark: another data set of the same source
Description: as §1

Compared with B3, B13 is 1.5-fold lower in EC50: 0.209 nM for the first, 0.139 nM for the second.

B14 gave an EC50 of 0.114 nM.

Target: T1, human α-synuclein pre-formed fibrils …
Assay: as above
Remark: another data set of the same source
Description: as §1

Compared with B3, B11 is 1.7-fold lower in EC50: 0.484 nM for the first, 0.284 nM for the second. The second is the more potent here.

Going from B15 to B12, the EC50 falls from 1.1 nM to 0.215 nM (5.1-fold). The second is the more potent here.

Work on B16 yielded an EC50 of 1.12 nM.

These binders were tested against T1, human α-synuclein pre-formed fibrils … (assay: cell-based or functional assay).

For B3, the “phagocytosis of α-syn PFF by BV-2 cells (gMFI, FACS)” value was 2 fold against ch9E4.

Target: T1, human α-synuclein pre-formed fibrils …
Assay: SPR Biacore T200, antibody captured on Protein A chip, α-syn PFF analyte, 1:1 model
Remark: another data set of the same source
Description: as §2

First: B3
Second: B1
The Kd of the first is 1.9-fold higher: 0.0519 nM for the first, 0.0276 nM for the second.

First: B13
Second: B14
The Kd of the first is 1.9-fold lower: 0.051 nM for the first, 0.096 nM for the second.

B3 and B1 are within 1.5-fold of each other in koff: 0.00054 s⁻¹ for the first, 0.000439 s⁻¹ for the second.

First: B13
Second: B14
The koff of the first is 1.6-fold lower: 0.000854 s⁻¹ for the first, 0.00137 s⁻¹ for the second.

Compared with B3, B1 is 1.5-fold higher in kon: 1.04e+07 M⁻¹ s⁻¹ for the first, 1.59e+07 M⁻¹ s⁻¹ for the second.

B13 and B14 are within 1.5-fold of each other in kon: 1.68e+07 M⁻¹ s⁻¹ for the first, 1.42e+07 M⁻¹ s⁻¹ for the second.
